In general, Kd refers to a measure of binding affinity in units of concentration.

For assay [1], the target named is human IL-13Rα1 (human) (UniProt P78552). The assay can be described thus: SPR on immobilized ligands with receptors as flow analytes using MCK, top trace marked 1000 nM.
The target in assay [2] is human IL-13Rα2 (human) (UniProt Q14627). The assay can be described thus: SPR on immobilized ligands with receptors as flow analytes using MCK, top trace marked 250 nM.
For assay [3] the target is unchanged. Nature of the assay: SPR, construct captured on anti-human IgG (Fc) antibody on a CM5 chip, human receptor as analyte. In general terms: SPR reads the build-up and loss of mass on a sensor chip optically.
Assay [4] deals with human IL-13Rα1 (human) (UniProt P78552). Described as above.
Assay [5] has as its target T1, human IL-2R beta (CD122) (human) (UniProt P14784).
T1 sequence (looked up): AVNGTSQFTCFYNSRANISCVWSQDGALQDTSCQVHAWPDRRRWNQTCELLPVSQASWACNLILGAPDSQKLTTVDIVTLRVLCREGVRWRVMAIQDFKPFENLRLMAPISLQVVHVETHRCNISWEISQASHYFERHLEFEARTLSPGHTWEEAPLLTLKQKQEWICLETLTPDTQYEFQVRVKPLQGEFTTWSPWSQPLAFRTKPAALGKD
The assay can be described thus: BLI (Octet). For orientation: BLI is a label-free optical method that tracks binding on a fibre tip over time.

Sequence of human IL-13Rα2 (human) (Q14627 27-343 limits assumed): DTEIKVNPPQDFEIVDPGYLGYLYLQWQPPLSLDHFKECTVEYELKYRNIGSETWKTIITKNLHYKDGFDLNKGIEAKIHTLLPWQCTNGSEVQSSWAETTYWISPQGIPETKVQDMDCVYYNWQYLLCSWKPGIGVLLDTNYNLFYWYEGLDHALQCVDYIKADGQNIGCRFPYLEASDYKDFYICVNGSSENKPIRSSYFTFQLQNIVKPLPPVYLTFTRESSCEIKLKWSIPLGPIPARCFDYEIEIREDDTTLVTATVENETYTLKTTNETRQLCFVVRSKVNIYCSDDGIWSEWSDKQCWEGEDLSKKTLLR
Sequence of human IL-13Rα1 (human) (P78552 22-343 limits assumed): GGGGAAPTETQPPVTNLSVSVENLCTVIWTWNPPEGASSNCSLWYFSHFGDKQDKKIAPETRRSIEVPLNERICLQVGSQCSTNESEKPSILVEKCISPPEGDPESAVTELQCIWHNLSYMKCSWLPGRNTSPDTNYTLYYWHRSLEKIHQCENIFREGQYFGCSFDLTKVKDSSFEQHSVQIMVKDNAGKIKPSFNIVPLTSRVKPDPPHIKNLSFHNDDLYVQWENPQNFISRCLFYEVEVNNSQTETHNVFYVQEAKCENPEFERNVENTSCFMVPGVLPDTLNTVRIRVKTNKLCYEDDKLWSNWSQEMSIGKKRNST

Consider “Fc-IL13 (wild-type IL-13 with Fc tag, comparator; format not stated) (Fc fusion)”, for which the Kd with human IL-13Rα1 (human) [1] came out at 202 nM; with human IL-13Rα2 (human) [2] it was 0.69 nM; with human IL-13Rα2 (human) [3] it was 0.6 nM; with human IL-13Rα1 (human) [4], 237 nM.
In the case of VivoTag800-MDNA11, the Kd in assay [5] turned out to be 7 nM. That is a single-digit nanomolar value.
Regarding MDNA11 (MDNA109FEAA-Albumin), the dissociation constant Kd in assay [5] was found to be 11 nM. This Kd is about 1.6-fold higher than that of the substance before.
